# Patent US11672846B2, “Soluble bacterial and fungal proteins and methods and uses thereof in inhibiting and dispersing biofilm” (priority 2014, dated 2023)
# “Also recorded” adds a separate entry of the source.
# B1: BpsB318-670: BpsB C-terminal hydrolase domain residues 318-670, SEQ ID NO: 19 (protein, listed as Bordetella bronchiseptica)
# chain: PIERIVQVDLDYIYDPDPEQQNRNLGQLIDRMKDLAPSAVYLQAFADPKGDGDITEVYFPNRHLPMRADLFNRVAWQLKTRAGVMVYAWLPVLTFSVPPGNPAYGKVVQSTTRKPGERGLGSPTRLSPFHPDAHRVISEIYEDLAKAAHFDGLLFHDDAVLDDTEDSSPEALATYQGWGLPPDIAAIRADPKLAQQWSKGKIRYLIDFTMHLRHIVSGYQNDRDMVVARNLYAQPVLDPVSEAWYGQSLPEFLKSYDFVALMAMPNMEGAARPEQWMRQLVAAVARQKGLDRTIFELQARDWRVGKPIDTEILRRQMVQLRSLGAINYGYYPDDFIANHPDAEALRDVMSLKS
# B2: PelA47-303: soluble PelA hydrolase domain, residues 47-303, P. aeruginosa PAO1, SEQ ID NO: 12 (protein, listed as Pseudomonas aeruginosa)
# chain: GGPSSVAFWYAERPPLAELSQFDWVVLEAAHLKPADVGYLKEQGSTPFAYLSVGEFDGDAAAIADSGLARGKSAVRNQAWNSQVMDLAAPSWRAHLLKRAAELRKQGYAGLFLDTLDSFQLQAEERREGQRRALASFLAQLHRQEPGLKLFFNRGFEVLPELPGVASAVAVESIHAGWDAAAGQYREVPQDDRDWLKGHLDALRAQGMPIVAIDYLPPERRDEARALAARLRSEGYVPFVSTPALDYLGVSDVEVQP
# Legend:
# [1] = Reducing sugar assay on dPNAG; format: biochemical, S. aureus
# Description: Isolated dPNAG from S. aureus strain MN8m was solubilized in 6 N HCl at ˜10 mg/mL. 10 N NaOH was used to titrate the re-suspension until neutrality was reached, ˜pH 7-8. In a 50 μL reaction, 1 μM BpsB318-670 was incubated with 1-5 mg/mL of dPNAG in 100 mM HEPES pH 7.0 for 18 hours. The sample was split into two 20 μL aliquots and treated with DTT/3-Methyl-2-benzothiazolinone hydrazone hydrochloride hydrate and heated at 80° C. for 15 minutes. A solution of 0.5% (w/w) iron (III) ammonium sulfate dodecahydrate, 0.5% (w/w) sulfamic acid, and 0.25 N hydrochloric acid was added, mixed, and cooled to room temperature. […] Protein and dPNAG in buffer H were used as background controls.
# [2] = system: PNAG-overproducing E. coli biofilms; assay: Dispersal of pre-formed PNAG-dependent E. coli biofilms
# Description: Bacterial cultures expressing Psl were inoculated as stated above and were grown at 37° C. overnight with shaking at 200 rpm. All cultures were diluted in 1:100 in LB and arabinose was added to a final concentration of 0.5% (w/v) to induce Psl biosynthesis. Media containing the Psl-producing cultures were supplemented with 200 μg/mL ampicillin and 100 μg/mL kanamycin. The cultures were incubated statically for 24 h at 26° C. to allow for biofilm formation. After incubation non-adherent cells and media were removed by washing the plate with deionized water three times. The wells were filled with 95 μL of 100 mM sodium HEPES buffer pH 7.0 followed by 5 μL of varying concentrations of each hydrolytic enzyme (2 nM-5 μM). Reactions were allowed to proceed for up to 60 min at 25° C. on a rotating nutator at which time, the reaction was quenched by washing the plates with deionized water. The wells were stained with 200 μL of 0.1% (w/v) crystal violet for 10 min, and washed with water three times. Crystal violet dye from Psi cultures was solubilized in 100 μL of 95% ethanol for 10 min with rotation, after which time the absorbance was measured at 595 nm using a SpectraMax M2 from Molecular Devices (Sunnyvale, Calif.). The amount of biofilm is proportional to the absorbance from staining with crystal violet (Merritt et al 2005). All reactions were completed in at least triplicate and 100 mM sodium HEPES buffer pH 7.0 was used as an untreated control. The addition of 2.5 mg/mL kanamycin to culture prior to biofilm formation was used as a positive control as no cell growth occurs.
# PNAG-overproducing E. coli was grown at 37° C. overnight in LB broth supplement with 200 ug/mL ampicillin and 100 ug/mL kanamycin with shaking at 200 rpm. An E. coli μgaABCD knockout strain was used as a non-biofilm forming control for background straining.
# S. carnosus = assay: Inhibition of PNAG-dependent S. carnosus biofilm formation; conditions: 5 μM, preliminary testing
# Description: In brief, PNAG-overproducing E. coli or S. carnosus was grown at 37° C. overnight in LB broth supplement with 200 μg/mL ampicillin and 100 μg/mL kanamycin, and 10 μg/mL tetracycline, respectively, with shaking at 200 rpm. Fresh cultures with antibiotic were prepared from the overnight culture using a 1:100 dilution, using LB broth for E. coli, and tryptic soy broth for S. carnosus. 95 μL of diluted culture was added to a sterile 96-well polystyrene round bottom microtiter plate and varying concentrations of protein (2 nM-5 μM) were added in 5 μL aliquots to give a final volume of 100 μL. The cultures were incubated statically for 24 h at 26° C. for E. coli, and 37° C. for S. carnosus, to allow for biofilm formation. To eliminate edge-effects, ˜200 μL of sterile water was placed in all outside wells and the plate was sealed with parafilm. After incubation non-adherent cells and media were removed by washing the plate with deionized water three times. The wells were stained with 150 μL of 0.1% (w/v) crystal violet for 10 min, and washed with water three times. The remaining dye was solubilized with 100 μL of 33% (v/v) acetic acid for 10 min with rotation, after which time the absorbance was measured at 595 nm using a SpectraMax M2 from Molecular Devices (Sunnyvale, Calif.). […] All reactions were completed in at least triplicates and buffer G was used as an untreated control. […]
# [3] = system: PNAG-overproducing E. coli; assay: Inhibition of PNAG-dependent E. coli biofilm formation (crystal violet); conditions: read-out: EC50 of E. coli biofilm formation prevention, static 24 h at 26° C.
# Description: In brief, PNAG-overproducing E. coli or S. carnosus was grown at 37° C. overnight in LB broth supplement with 200 μg/mL ampicillin and 100 μg/mL kanamycin, and 10 μg/mL tetracycline, respectively, with shaking at 200 rpm. Fresh cultures with antibiotic were prepared from the overnight culture using a 1:100 dilution, using LB broth for E. coli, and tryptic soy broth for S. carnosus. 95 μL of diluted culture was added to a sterile 96-well polystyrene round bottom microtiter plate and varying concentrations of protein (2 nM-5 μM) were added in 5 μL aliquots to give a final volume of 100 μL. The cultures were incubated statically for 24 h at 26° C. for E. coli, and 37° C. for S. carnosus, to allow for biofilm formation. To eliminate edge-effects, ˜200 μL of sterile water was placed in all outside wells and the plate was sealed with parafilm. After incubation non-adherent cells and media were removed by washing the plate with deionized water three times. The wells were stained with 150 μL of 0.1% (w/v) crystal violet for 10 min, and washed with water three times. The remaining dye was solubilized with 100 μL of 33% (v/v) acetic acid for 10 min with rotation, after which time the absorbance was measured at 595 nm using a SpectraMax M2 from Molecular Devices (Sunnyvale, Calif.). […] All reactions were completed in at least triplicates and buffer G was used as an untreated control. Either an E. coli pgaABCD knockout strain (DPGA) or S. carnosus treated with gentamycin, was used as a control for background straining.
# [4] = system: P. aeruginosa PAO1 pBADpsl; assay: Inhibition of Psl biofilm formation in static culture (crystal violet); format: cell-based, Pseudomonas aeruginosa; conditions: specificity control
# [5] = system: Psl biofilms of P. aeruginosa PAO1 pBADpsl; assay: Dispersal of pre-formed Psl biofilms (crystal violet); format: cell-based, Pseudomonas aeruginosa
# A. fumigatus GAG biofilm = assay: Inhibition of GAG-dependent A. fumigatus biofilm formation (crystal violet); format: cell-based; conditions: 20 h in Brian media, crystal violet
# [6] = Reducing sugar assay on purified GAG; format: biochemical, A. fumigatus
# Description: (§1) Crude GAG was isolated from A. fumigatus biofilms. 200 μL GAG aliquots were centrifuged to pellet the gelatinous fraction. The pellets were washed twice with 350 μL PBS. The wash procedure included vortexing for 5 min, sonicated in a bath for 3 min, and manual mixing by pipetting to reach homogeneity. The final pellet was resuspended in 200 μL of PBS. Samples were treated with 10-20 μM protein and incubated at 26° C. Samples were taken at 24 h. GAG hydrolysis was quantified using a reducing sugar assay as described previously (Anthon & Barrett 2002) with slight modifications. Briefly, 20 μL of enzyme reaction was mixed with 20 μL of 0.5 M NaOH and 20 μL of MBTH/DTT solution (1.5 mg/L 3-methyl-2-benzothiazolinone hydrazine (MBTH) and 0.5 mg/L DTT). The samples were incubated at 80° C. for 15 min before the addition of 40 μL of acidic iron reagent (0.5% (FeNH4(SO4)2).12 H2O, 0.5% sulfamic acid, and 0.25 N HCl). Samples were diluted two-fold in water, before the absorbance was quantified at 620 nm.
# [7] = Reducing sugar assay, substrate specificity; format: biochemical
# Description: as §1, with “[…] […]” for “Crude GAG was isolated from A. fumigatus biofilms. 200 μL GAG aliquots were centrifuged to pellet the gelatinous fraction.”, “GAG hydrolysis was quantified using a reducing sugar assay as described previously (Anthon & Barrett 2002) with slight modifications.” left out
# [8] = system: pre-formed A. fumigatus GAG biofilms; format: cell-based; conditions: crystal violet
# [9] = system: Pel-dependent biofilms from P. aeruginosa PAO1 ΔwspFΔpslpBADpel; assay: Pel biofilm dispersal by enzyme in Pluronic F-127 gel; format: cell-based, Pseudomonas aeruginosa; conditions: 100, 200 and 500 μg/mL in 20% Pluronic F-127, 1 h
# Description: Poloxamer 407 (trade name Pluronic® F-127 or PF-127) is a hydrophilic non-ionic surfactant has been used as a drug delivery system for a number of routes of administration (Escobar-Chavez et al 2006). A 20% gel of PF-127 was prepared by mixing 1×PBS with Pluronic® F-127 at 4° C. until the polymer was dissolved. PelA47-303 was added at three concentrations; 100 μg/mL, 200 μg/mL and 500 μg/mL to this solution. Pel-dependent biofilms from strain P. aeruginosa PAO1 ΔwspFΔpslpBADpel were formed as described in Example 8. The buffer, gel and gels containing various concentrations of PelA47-303 were applied to the biofilm.
# [10] = purified protein
# [11] = system: A549 pulmonary epithelial cell line injured by A. fumigatus; assay: Chromium release epithelial cell damage assay; conditions: 0.5 μM, 16 h
# Description: The immortalized airway epithelial cell line A549 was loaded with chromium-51 by incubating monolayers grown in 24-well tissue culture plates with 3 mCi of ^51Cr at 37° C. in 5% CO2 for 24 h. Excess chromium was removed by washing with Hank's Balanced Salt Solution (HBSS). […] For testing germ tubes, conidia were grown for 7 h in SAB media at 37° C., then the fungus was collected and resuspended in DF12K media before 0.5 μM of hydrolase was added. The germ tubes were incubated with hydrolase for 1 h before being added to the A549 cells. After 16, 20 and 24 h of co-incubation, an aliquot of the medium above the cells was retrieved and replaced with fresh media. The cells were then lysed with 6 N NaOH and the lysate collected. The ^51Cr content of the medium and lysates was then measured in a gamma counter and the extent of epithelial cell damage was calculated as a function of the degree of ^51Cr release. Each strain was tested in triplicate, and all results were corrected for spontaneous chromium release by uninfected epithelial cells.
# The methodology for prevention of epithelial cell damage caused by A. fumigatus using Sph352-298 is identical to that previously described in Example 19 for the use PelA47-303.
# [12] = system: Pel biofilms of P. aeruginosa PAO1 ΔwspFΔpslpBADpel; assay: Dispersal of pre-formed Pel biofilms (crystal violet); conditions: 38 μM and 19 μM, 2 h
# Description: The methodology to generate pre-formed Pel biofilms is identical to that of Psl biofilms, described in Example 4 with the exception that the strain used is P. aeruginosa PAO1 ΔwspFΔpslpBADpel.
# [13] = system: P. aeruginosa PAO1 ΔwspFΔpslpBADpel biofilms with differentiated HL-60 cells; assay: HL-60 neutrophil killing of P. aeruginosa biofilm (CFU plating)
# Description: Overnight cultures of P. aeruginosa PAO1 ΔwspFΔpslpBADpel were diluted to an OD600 of 0.05 in LB+0.5% arabinose and inoculated in a 96 well tissue culture-treated plate at a final volume of 100 μl/well. The plate was incubated statically at 28° C. for 20 h. Supernatants were aspirated and 100 μL of phenol red-free RPMI+10% Fetal Bovine Serum (FBS) containing 0.5 μM of PelA47-303 was added. The plate was incubated at room temperature on a Nutator for 1 h. Following pretreatment with hydrolase, 100 μL RPMI+10% FBS containing 6×10^6 differentiated HL-60 cells were added to the wells, and plate was incubated for 90 min at 37° C., 5% CO2. Wells were aspirated and supernatant was diluted between 1/200000 and 1/400000, and plated (50 μl) onto LB agar. To aspirated wells, 200 μL of “disruption solution” (PBS containing 2 μM of PelA47-303 and 2 μM PslG31-442) was added and plate was incubated at room temperature on the Nutator for 1-1.5 h. Wells were aspirated, diluted and plated onto LB agar as above.
# [14] = system: P. aeruginosa PAO1 ΔwspFΔpslpBADpel; assay: Inhibition of Pel biofilm formation in static culture (crystal violet); conditions: static culture
Molecule,dPNAG hydrolysis (in words) [1],"EC50 ([2]; read-out: EC50 of degradation of pre-formed E. coli biofilm, 60 min, average starting OD595 of 0.5)",inhibition of S. carnosus biofilm formation (in words) (S. carnosus),EC50 [3],inhibition of Psl biofilm formation (in words) [4],dispersal of pre-formed Psl biofilm (in words) [5],concentration sufficient to prevent GAG biofilm formation (A. fumigatus GAG biofilm),"GAG hydrolysis, reducing ends (in words) ([6]; 10-20 μM protein, 26° C., 24 h)",reducing ends produced relative to Sph352-298 ([6]; under assay conditions),hydrolysis of chitin and chitosan [7],dispersal of pre-formed GAG biofilm (in words) [8],dispersal of Pel-dependent biofilm by enzyme in gel [9],concentration to which the protein could be concentrated [10],"epithelial cell injury by A. fumigatus, chromium release [11]",dispersal of pre-formed Pel biofilm (in words) [12],dispersal of PNAG-dependent biofilms (in words) [2],"degree of microbial killing by HL-60 neutrophil cell line ([13]; 0.5 μM enzyme pretreatment, neutrophils alone approximately 22%)",bacterial killing relative to neutrophils alone ([13]; enzyme with neutrophils),enzyme concentration that prevented Pel biofilm formation [14]
B1,hydrolyze dPNAG,~90 nM,can inhibit biofilm formation,~60 nM,–,–,–,–,–,–,–,–,–,–,–,–,–,–,–
B2,–,–,–,–,did not inhibit Psl biofilm formation,did not result in the loss of the Psl-dependent biofilm,≥ 2 µM,number of reducing ends in solution increased,~2 fold,not significant over background hydrolysis,elimination of the GAG biofilm,able to disperse the biofilm; also recorded: successfully dispersed the biofilm,8000 to 10000 µg/mL,blocked the ability of A. fumigatus to induce pulmonary epithelial cell injury,successfully dispersed the Pel biofilm; also recorded: biofilm dispersal after 2 hours,had no affect,~42%,~2 fold,500 nM
